# In article PMC9942873 (Immunity, 2023):
# B1: RUPA-91 (antibody, V domains shown)
# VH: QVQLVQSGAEVKKIGASVKVSCKASGYTFTSHDIIWVRQAAGQGLEWMGWMNPNTGKKGYVEKFQGRVTLTRNMSTGTAYMELSSLRSDDTAVYYCARGVGTYHGSEGWLDPWGQGTLITVSS
# VL: QSVLTQPPSASETPGQRVTISCSGSSSNVGSNSVNWYQQVPGTAPKLLIYNTNQRPSGVPARFSGSKSGTSASLAISGLHSEDEADYYCATWDGSLKKGVFGGGTKVTVL
# notes: human IgG1; source: recombinant human IgG1, 293T (Protein A purified) or GenScript
# B2: RUPA-92 (antibody, V domains shown)
# VH: QVQLVQSGAEVKKPGASVKVSCKASGYTFTSHDIIWVRQATGQGLEWMGWMNPNTGDKGYAQKFQGRVTMTRSMSISTAYMELRSLRSEDTAVYYCARGVGTYRGSGGWFDPWGPGTLITVSS
# VL: QSALTQPRSVSGSPGQSVTISCTGTSGDVGGFNYVSWYQQHPGKTPRLMLYHVTKRPSGVPDRFSGSKSGNTASLTISGLQADDEADYYCCSYAGNYIEIFGGGTKLTVL
# notes: as for B1
# B3: RUPA-88 (antibody, V domains shown)
# VH: QVHLVQSGAEVKKPGASVKVSCKASGYNFLYHDITWVRQATGQGLEWLGWMNPNTGDTGYAQNFQGRVTMTRDMSRSTAYLELGSLRSEDTAVYYCARGVGSYHGSGGWLDPWGPGTLVIVSS
# VL: QSVLTQPPSVSETPGQRVTISCSGSSSNIGLNTVNWYQQLPGTAPKLLIHNDNQRPSGVPDRFSGSKSGTSASLAISGLHSEDEADYYCATWDDSLKRRVFGGGTKLTVL
# notes: as for B1
# B4: RUPA-99 (antibody, V domains shown)
# VH: QVHLVQSGAEVKKPGASVKVSCKASGYNFLYHDITWVRQATGQGLEWLGWMNPNTGDTGYAQNFQGRVTMTRDMSRSTAYMELDSLRSEDTAVYYCARGVGSYHGSGGWLDPWGPGTLVIVSS
# VL: QSVLTQPPSVSETPGQRVTISCSGSSSNIGLNTVNWYQQLPGTAPNLLIHNDNQRPSGVPDRFSGSKSGTSASLAISGLHSEDEADYYCATWDDSLKRRVFGGGTKLTVL
# notes: as for B1
# B5: RUPA-26 (antibody, V domains shown)
# VH: QVQLQQWGAGLLKPSETLSLTCLVNGGSFSDYYWSWIRQPPGRGLEWIGDVNHSGTTNHRPSLQSRVTLSLDMSKNQFSLKLTSVTAADTAVYFCARRSSGYYRGSRYTGWFDPWGQGTLVTVSS
# VL: EIVLTQSPATLSVSPGERATLSCRASQTITRNLAWYQQKPGQAPRLLIYGASTRAPDIPARFSGSGSGTEFTLTISSLQSEDFALYYCQQYNNWPGLTFGGGTKVEIK
# notes: as for B1
# B6: RUPA-45 (antibody, V domains shown)
# VH: QVQLQQWGAGLLKPSETLSLTCLVNGGSFSDYYWSWIRQPPGRGLEWIGDVNHSGTTNHRPSLQSRVTLSLDMSKNQFSLRLTSVTAADTAVYFCARRSSGYYRGSHYTGWFDPWGQGTLVTVSS
# VL: EIVLTQSPATLSVSPGERATLSCRASQTITRNLAWYQQKPGQAPRLLIYGASTRAPDIPARFSGSGSGTEFTLTISSLQSEDFALYYCQQYNNWPGLTFGGGTKVEIK
# notes: as for B1
# B7: RUPA-78 (antibody, V domains shown)
# VH: EGQLLESGGDLVQPGGSLRLSCAASRFTFNTFAMTWVRQAPGKGLEWVSTISRSGSSTFYADSVKGRFTISRDNSKDTLYLQMNSLRAEDTALYSCAKFRTPRFSSSSGDALDLWGQGTMVTVSS
# VL: EIVLTQSPGTLSLSPGERATLSCRASQSVSSSYFAWYQRRPGQAPRLVIDGASSRATGIPDRFSGSGSGTDFTLTISRLEPEDFAVYYCQQYGVSPGTFGQGTKLEIK
# notes: as for B1
# B8: RUPA-87 (antibody, V domains shown)
# VH: QVQVVQSGAEVRKPGASVKVSCKTSGYTFIYYYIHWVRQAPGQGLEWLGWINPNSGGTKYAQQFQGRVTVTRDTSVSTAYMELNGLTSDDTAVYYCARVVAAEGYFDYWGQGTLLTVSS
# VL: DIQMTQSPSSVSASVGDRVTITCRASQGISGWLAWYQQKPGKAPKLLIYAASTLQSGVPSRFSGSGSGTDFTLTISSLQPDDFATYFCQQANSFPLTFGGGTKISLK
# notes: as for B1
# B9: RUPA-90 (antibody, V domains shown)
# VH: EVQLVESGGGLVQPGGSLRLSCAASGFMFSSYWMTWVRQAPGKGLEWVANIKEDGSEKYYVDSVKGRFTISRDNAENSLYLHMNSLRAADTAVYYCAREGDVFVAPSAVRKGGVYGMDVWGQGTTVTVSS
# VL: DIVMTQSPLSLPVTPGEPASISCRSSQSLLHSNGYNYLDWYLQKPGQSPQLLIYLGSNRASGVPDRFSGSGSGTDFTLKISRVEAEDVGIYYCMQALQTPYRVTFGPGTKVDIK
# notes: as for B1
# B10: RUPA-30 (antibody, V domains shown)
# VH: QVQLVQSGAEVKKPGASVKVSCKASGYTFTTYFLHWVRQAPGQGLEWMGVIHPSGGSTTYAENFEGRVTMSRDTSTSTVYMELSSVRYEDTAVYYCARAGEYCRGIRCYIDGLDIWGQGTTVTVSS
# VL: DIQMTQSPSSLSASVGDRVTITCRASQGIRNDLGWYQQKPGKAPKRLIYAASSLQSGVPSRFSGSGSGTEFTLTISSLQPEDFATYYCLQHNDSPWTFGQGTKVEIK
# notes: as for B1
# B11: RUPA-37 (antibody, V domains shown)
# VH: QEQLVQSGAELRTPGATVKVSCKAPAYTFTTYFMHWVRQAPGRGFEWLGRINPSRGSTTYADKFQGRVTMTSDTSTTTVFMEVTNLRSEDTAVYYCARAGEYCRGIRCYVDGIDMWGQGTMITVSS
# VL: DIQMTQSPSSLSASIGDRVTITCRASQGIRNDLGWYQQKPGKAPQRLIYAASSLQSGVPSRFSGSGSGTEFTLTISSLQPEDFASYFCLQHNSSPWTFGQGTKVEIK
# notes: as for B1
# B12: RUPA-46 (antibody, V domains shown)
# VH: QVQLVQSGGGLVKPGGSLKLSCAASGFAFSDYYMHWIRQSPGKGLEWISYVSNSGNTIYYADSVKGRFTISRDNTKNSLFLQMNSLSADDTAVYYCARDRKGRNSETYYGALDVWGQGTTVTVST
# VL: DIVMTQSLDSLAVSLGERATINCKSSQSVFSTYNNKNYLAWYQQKLGQPPKLLIYWASTRESGVPDRFSGSGSGTDFTLTISSLQAEDVAVYYCQQYYTTPTWTFGQGTKVEIK
# notes: as for B1
# B13: RUPA-36 (antibody, V domains shown)
# VH: QVQLQQWGAGLLKPSETLSLTCAVEGDSLGDYYWSWIRQPPGKGLEWIGDINHSGTTNYIPSLKSRVTISVDPSRKHFSLKLNFVTAADTATYFCARRASGWYRQSRYTGWFDPWGQGTLVTVSS
# VL: EIVMTQSPATLSVSPGERATLSCRASHSINSNVAWYQQKPGQAPRLLIYGASTRATGIPARFSGSGSGTEFTLTISSLQTEDFAVYYCQQYNNWPGLSFGGGTKVEIK
# notes: as for B1
# B14: RUPA-104 (antibody, V domains shown)
# VH: QVQLVQSGAEVKKPGASVKISCKTSGYTFTNYDINWVRQATGRGLEWMGWINPNTGKTGFAQKFQGRVTMTRSTSISTAYMELSSLRSEDTAVYYCARGVTTPDYFDSWGQGTLVTVSS
# VL: DIQMTQSPSSVSASVGDRVSITCRASQDISGWLAWYQQKPGKAPKLLIYAASTLRTGVPSRFSGSGSGTDFTLTISSLQPEDFATYYCLQANSLPVTFGQGTRLEIT
# notes: as for B1
# How the values were obtained:
# Assay in all cases: ELISA
# Conditions in all cases: both partners purified
# [1] = target: T1, recombinant full-length Pfs48/45 (Plasmodium falciparum 3D7, UniProt Q8I6T1)
# T1 sequence (Q8I6T1 28-428): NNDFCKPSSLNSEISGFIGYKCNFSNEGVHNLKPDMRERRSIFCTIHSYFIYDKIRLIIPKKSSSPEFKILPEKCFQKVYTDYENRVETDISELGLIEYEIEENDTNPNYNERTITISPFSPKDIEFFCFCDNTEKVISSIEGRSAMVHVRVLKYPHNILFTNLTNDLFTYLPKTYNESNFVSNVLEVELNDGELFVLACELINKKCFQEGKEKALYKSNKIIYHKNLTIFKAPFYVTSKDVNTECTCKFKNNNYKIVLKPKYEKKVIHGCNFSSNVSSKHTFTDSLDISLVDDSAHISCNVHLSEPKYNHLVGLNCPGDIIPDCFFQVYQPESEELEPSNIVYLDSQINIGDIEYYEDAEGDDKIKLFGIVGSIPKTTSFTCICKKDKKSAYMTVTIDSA
# Pfs48/45 D1-2 [2] = target: T2, Pfs48/45 D1-2 (Plasmodium falciparum 3D7, UniProt Q8I6T1)
# T2 sequence (Q8I6T1 28-289): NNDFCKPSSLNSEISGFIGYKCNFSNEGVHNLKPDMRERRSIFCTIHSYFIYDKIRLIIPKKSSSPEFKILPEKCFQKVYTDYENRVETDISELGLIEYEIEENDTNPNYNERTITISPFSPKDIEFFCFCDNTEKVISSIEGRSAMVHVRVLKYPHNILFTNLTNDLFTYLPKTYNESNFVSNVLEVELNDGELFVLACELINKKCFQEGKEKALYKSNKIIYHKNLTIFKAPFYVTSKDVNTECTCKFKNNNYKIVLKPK
# Pfs48/45 D2-3 = Pfs48/45 D2-3 (Plasmodium falciparum 3D7, UniProt Q8I6T1)
# Sequence of Pfs48/45 D2-3 (Q8I6T1 184-428): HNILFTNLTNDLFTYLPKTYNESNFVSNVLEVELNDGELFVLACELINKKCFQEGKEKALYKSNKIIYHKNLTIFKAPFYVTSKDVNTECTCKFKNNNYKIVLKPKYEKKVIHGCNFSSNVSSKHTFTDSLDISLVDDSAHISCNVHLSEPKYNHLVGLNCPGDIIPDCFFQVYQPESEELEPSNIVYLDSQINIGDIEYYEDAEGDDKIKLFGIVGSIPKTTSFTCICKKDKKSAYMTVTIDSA
# [3] = target: T1, recombinant full-length Pfs48/45; remark: listed apart in the source
# Pfs48/45 D1-2 [4] = target: T2, Pfs48/45 D1-2; remark: listed apart in the source
Binder,binding result [1],binding result (Pfs48/45 D1-2 [2]),binding result (Pfs48/45 D2-3),binding result [3],binding result (Pfs48/45 D1-2 [4])
B1,binds,binds,binds,,
B2,binds,binds,binds,,
B3,binds,binds,binds,,
B4,binds,binds,binds,,
B5,,,,binds,binds
B6,,,,binds,binds
B7,,,,binds,binds
B8,binds,binds,binds,,
B9,binds,binds,binds,,
B10,,,,binds,binds
B11,,,,binds,binds
B12,,,,binds,binds
B13,,,,binds,binds
B14,binds,binds,binds,,
